Data on 1 molecule can be found in CN117843802A (BEILAI PHARMACEUTICAL CO LTD, dated 2024).

Test [1] concerns the target T1, Human IL-17A蛋白 (Human, UniProt Q16552 24-155).
T1 sequence (looked up): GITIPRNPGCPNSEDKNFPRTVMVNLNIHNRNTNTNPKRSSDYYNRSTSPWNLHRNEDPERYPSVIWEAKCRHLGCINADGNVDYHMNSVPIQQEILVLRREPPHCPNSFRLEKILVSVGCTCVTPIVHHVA
The test is described as follows: cell-based or functional assay.

The target of test [2] is T2, Human IL-17A重组蛋白 (IL-17A-His) (Human, UniProt Q16552 24-155, biotinylated (Biotin-IL-17A-His) in the ELISA of paragraph 259; site not stated).
T2 construct: Recombinant antigen expressed in E. coli BL21 from pET28a, purified on a nickel column; also called IL-17A抗原蛋白; IL-17抗原
T2 sequence: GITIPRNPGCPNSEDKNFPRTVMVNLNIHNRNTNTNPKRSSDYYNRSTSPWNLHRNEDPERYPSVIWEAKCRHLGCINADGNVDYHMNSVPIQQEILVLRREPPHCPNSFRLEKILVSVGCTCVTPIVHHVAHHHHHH
As to the kind of experiment: ELISA: antibody coated at 2 ug/mL, Biotin-IL-17A-His titrated from 10 ug/mL (5-fold, 7 points), HRP-Streptavidin. (In general: In an ELISA, binding on a coated surface is turned into a signal by an enzyme label.)

B1: Ixekizumab (antibody, human IgG4 S228P, kappa, V domains shown)
VH: QVQLVQSGAEVKKPGSSVKVSCKASGYSFTDYHIHWVRQAPGQGLEWMGVINPMYGTTDYNQRFKGRVTITADESTSTAYMELSSLRSEDTAVYYCARYDYFTGTGVYWGQGTLVTVSS
VL: DIVMTQTPLSLSVTPGQPASISCRSSRSLVHSRGNTYLHWYLQKPGQSPQLLIYKVSNRFIGVPDRFSGSGSGTDFTLKISRVEAEDVGVYYCSQSTHLPFTFGQGTKLEIKR
notes: Made in-house: variable regions cloned into pcDNA3.4-hIgG4 and pcDNA3.4-hIgKc, expressed in 293F cells, purified on Protein A; also called 阳性对照抗体; 阳性抗体
As to B1, in test [1], the “IC50, luciferase activity of 293F-IL-17RA-IL-17Rc-ACT1-NFκB-Luc reporter cells” value was 1.36 µg/mL. The response in test [2] was half-maximal at 10.1 µg/mL (EC50).

As a reminder, the EC50 is the concentration giving half of the maximal effect. A lower EC50 goes with an effect from little substance.
